The values below come from paper PMC8564274 (Signal Transduction and Targeted Therapy, 2021).

Experiment [1] deals with T1, prefusion-stabilized ectodomain of the SARS-CoV-2 spike (SARS-CoV-2, WH01, stabilised). Description: BLI. Particulars: both partners purified.
Experiment [2] concerns the target T1, prefusion-stabilized ectodomain of the …. Description: cell-based or functional assay.

The term Kd denotes the free concentration of one partner at which half of the binding sites on the other are occupied at equilibrium, for simple one-to-one binding.

B1: n3113.1 (VHH)
VHH: EVQLVESGGGLVQPGGSLRLSCAASDSSFYDYEMSWVRQAPGKAQEWIGSMYPSGRTYINPSLKSLVTISRDNSKNTLYLQLNSLRAEDTAMYYCVSNWASGSTGDYWGQGTLVTVSS
Molecule B1 returned a Kd in experiment [1] of 63.8 nM. The “IC50 of neutralisation of SARS-CoV-2 S pseudovirus” value in experiment [2] is 6 µg/mL.
